For two proteins, Km results are on record in PMC2788523, “Overexpression and characterization of medium-chain-length polyhydroxyalkanoate granule bound polymerases from Pseudomonas putida GPo1” (Microbial Cell Factories, 2009).

Substrate in this series: CCCCC[C@@H](O)CC(=O)SCCNC(=O)CCNC(=O)[C@H](O)C(C)(C)COP(=O)(O)OP(=O)(O)OC[C@H]1O[C@@H](n2cnc3c(N)ncnc32)[C@H](O)[C@@H]1OP(=O)(O)O
Kind of series: cells, lysate or membranes. Type of series: biochemical, Ectopseudomonas oleovorans. To be noted: granule-bound enzyme (isolated PHA granules), 100 mM Tris-HCl pH 8, 1 mg/ml BSA, 0.5 mM MgCl2, substrate 0.0375-0.25 mM.

B1: PhaC2 (PHA polymerase 2), granule-bound (Ectopseudomonas oleovorans) (protein)
chain: MKDKPAKGTPTLPATSMNVQNAILGLRGRDLISTLRNVSRQSLRHPLHTAHHLLALGGQLGRVILGDTPLQPNPRDPRFSDPTWSQNPFYRRGLQAYLAWQKQTRLWIEESHLDDDDRARAHFLFNLINDALAPSNSLLNPLAVKELFNSGGQSLVRGVAHLLDDLRHNDGLPRQVDERAFEVGGNLAATAGAVVFRNELLELIQYKPMSEKQHARPLLVVPPQINKFYIFDLSSTNSFVQYMLKNGLQVFMVSWRNPDPRHREWGLSSYVQALEEALNACRSISGNRDPNLMGACAGGLTMAALQGHLQAKHQLRRVRSATYLVSLLDSKFESPASLFADEQTIEAAKRRSYQRGVLDGAEVARIFAWMRPNDLIWNYWVNNYLLGKTPPAFDILYWNADSTRLPAALHGDLLDFFKLNPLTHPAGLEVCGTPIDLQKVELDSFTVAGSNDHITPWDAVYRSALLLGGDRRFVLANSGHIQSIINPPGNPKAYYLANPKLSSDPRAWLHDAKRSEGSWWPLWLEWITARSGPLKAPRSELGNATYPPLGPAPGTYVLTR
notes: overexpressed from pGEc404 in PHA-negative P. putida GPp104; assayed on isolated PHA granules (other granule proteins present)
For B1, the Michaelis constant (Km) turned out to be 37 ± 10 µM.

B2: PhaC1 (PHA polymerase 1), granule-bound (Ectopseudomonas oleovorans) (protein)
chain: MSNKNNDELQRQASENTLGLNPVIGIRRKDLLSSARTVLRQAVRQPLHSAKHVAHFGLELKNVLLGKSSLAPESDDRRFNDPAWSNNPLYRRYLQTYLAWRKELQDWIGNSDLSPQDISRGQFVINLMTEAMAPTNTLSNPAAVKRFFETGGKSLLDGLSNLAKDLVNNGGMPSQVNMDAFEVGKNLGTSEGAVVYRNDVLELIQYKPITEQVHARPLLVVPPQINKFYVFDLSPEKSLARYCLRSQQQTFIISWRNPTKAQREWGLSTYIDALKEAVDAVLAITGSKDLNMLGACSGGITCTALVGHYAALGENKVNALTLLVSVLDTTMDNQVALFVDEQTLEAAKRHSYQAGVLEGSEMAKVFAWMRPNDLIWNYWVNNYLLGNEPPVFDILFWNNDTTRLPAAFHGDLIEMFKSNPLTRPDALEVCGTPIDLKQVKCDIYSLAGTNDHITPWQSCYRSAHLFGGKIEFVLSNSGHIQSILNPPGNPKARFMTGADRPGDPVAWQENATKHADSWWLHWQSWLGERAGELEKAPTRLGNRAYAAGEASPGTYVHER
notes: overexpressed from pGEc405 in PHA-negative P. putida GPp104; assayed on isolated PHA granules (other granule proteins present)
B2: the Michaelis-Menten constant (Km) was found to be 125 ± 35 µM.
